Assay results taken from patent US9215869 (UNIVERSITY OF GEORGIA RESEARCH FOUNDATION, dated 2015).

How the values were obtained:
[1] = target: Cry11Ba toxin, trypsin-activated (Bacillus thuringiensis jegathesan) (Bacillus thuringiensis jegathesan) (UniProt Q45730); test: cell-based or functional assay
[2] = target: Cry11Ba toxin, trypsin-activated (Bacillus thuringiensis jegathesan) (Bacillus thuringiensis jegathesan) (UniProt Q45730); test: 125I-Cry11Ba binding to An. gambiae BBMV with 10 µM competitor peptide
[3] = target: brush border membrane vesicles (BBMV) of Anopheles gambiae 4th instar larvae (Anopheles gambiae); test: 125I-Cry11Ba binding to An. gambiae BBMV in the presence of 10 µM AgAPN2tb, against no peptide
[4] = target: brush border membrane vesicles (BBMV) of Anopheles gambiae 4th instar larvae (Anopheles gambiae); test: 125I-Cry11Ba binding to An. gambiae BBMV in the presence of 10 µM AgAPN2tb/Del3, against no peptide
[5] = target: brush border membrane vesicles (BBMV) of Anopheles gambiae 4th instar larvae (Anopheles gambiae); test: 2.5 nM 125I-Cry11Ba on 8 µg An. gambiae BBMV, no competitor
[6] = target: brush border membrane vesicles (BBMV) of Anopheles gambiae 4th instar larvae (Anopheles gambiae); test: 125I-Cry11Ba binding to An. gambiae BBMV in the presence of 10 µM AgAPN2tb/Del1, against no peptide
[7] = target: T1, Cry11Ba toxin, trypsin-activated (Bacillus thuringiensis jegathesan) (Bacillus thuringiensis jegathesan, UniProt Q45730 29-647, 125I-labelled (chloramine-T) in the BBMV binding assays; unlabelled when coated on microtiter plates); test: saturation ELISA, biotinylated peptide on plates coated with trypsinized Cry11Ba, one-site fit
T1 construct: also called trypsinized Cry11Ba; trypsinated Cry11Ba
T1 sequence (Q45730 29-647 limits assumed): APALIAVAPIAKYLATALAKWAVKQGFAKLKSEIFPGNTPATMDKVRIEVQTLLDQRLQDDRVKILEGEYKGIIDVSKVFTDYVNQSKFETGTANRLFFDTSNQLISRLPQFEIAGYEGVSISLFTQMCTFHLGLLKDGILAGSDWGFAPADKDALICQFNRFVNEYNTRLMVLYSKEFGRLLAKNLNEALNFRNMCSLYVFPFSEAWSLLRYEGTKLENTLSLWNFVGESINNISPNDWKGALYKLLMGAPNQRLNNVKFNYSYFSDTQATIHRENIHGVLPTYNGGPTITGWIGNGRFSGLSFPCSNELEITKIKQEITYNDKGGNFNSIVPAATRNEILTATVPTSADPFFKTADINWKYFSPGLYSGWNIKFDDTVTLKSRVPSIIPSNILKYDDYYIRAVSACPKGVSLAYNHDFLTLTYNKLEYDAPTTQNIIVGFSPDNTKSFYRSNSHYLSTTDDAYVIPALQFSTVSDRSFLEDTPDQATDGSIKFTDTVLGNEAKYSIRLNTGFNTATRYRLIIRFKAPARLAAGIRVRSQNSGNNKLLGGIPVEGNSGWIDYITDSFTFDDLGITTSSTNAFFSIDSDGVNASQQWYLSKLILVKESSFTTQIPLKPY

Sequence of Cry11Ba toxin, trypsin-activated (Bacillus thuringiensis jegathesan) (from UniProt Q45730 29-647) (ligand) (Q45730 29-647 limits assumed): as above
Sequence of Cry11Ba toxin, trypsin-activated (Bacillus thuringiensis jegathesan) (Bacillus thuringiensis jegathesan) (Q45730 29-647 limits assumed): as above

Row | Molecule | larval mortality with Cry11Ba plus peptide inclusion bodies (1:100), 24 h [1] [%] | toxin bound to BBMV in presence of the competitor [2] [fmol] | Kd [7] [nM] | other results
1 | AgAPN2ta/Del2 (AgAPN2ta with a middle 10-kDa segment deleted) (receptor) | 8.8 | 20.6 |  | 
2 | AgAPN2ta/Del3 (AgAPN2ta with the third 10-kDa segment deleted) (receptor) | 5 | 19.5 |  | 
3 | Cry11Ba toxin, trypsin-activated (Bacillus thuringiensis jegathesan) (from UniProt Q45730 29-647) (ligand) |  |  |  | percent increase of Cry11Ba binding to BBMV [3]: 24%; percent increase of Cry11Ba binding to BBMV [4]: 45%; toxin bound [5]: 27.9 fmol; percent increase of Cry11Ba binding to BBMV [6]: 62%
4 | AgAPN2tb, 28-kDa fragment of Anopheles gambiae aminopeptidase N AgAPN2 (residues 591-843 of SEQ ID NO:2) (receptor, biotinylated when used as probe, Expressed in E. coli as inclusion bodies, solubilized in 8M urea, Ni-purified and dialyzed; An N-terminal Met from the NdeI site is implied by the primers; also called AgAPN2b; biotin-AgAPN2tb; not shown: C-terminal vector-derived His tag (pET-30a(+), NdeI/XhoI; purified on Ni2+ column)) GKISKALHSEGFGGIHVLNRAQIVDDLFNLARGDVVPYGTALEILEYLKEETEYAPWLAAVNGLTTLSRRIHADDEKLFTAHILDIFSKAYDIVKFQAPTATERRIFTYMRQNVLQWACNYGHEECSKAAVAEFHRYHQNPSVKVHPDLRQVVYCEGIRKGSTEEFEFLWNQYLTTNVATEQILILQGLGCVSSSELITDMLNGIASPHVRSQDKNNAFTYVINNPYTLPHVSRYLQQNHANWAASHGSYTNV |  |  | 26.4 | 
5 | AgAPN2ta, 30-kDa fragment of Anopheles gambiae aminopeptidase N AgAPN2 (residues 336-590 of SEQ ID NO:2) (receptor, biotinylated when used as probe, Expressed in E. coli as inclusion bodies, solubilized in 8M urea, Ni-purified and dialyzed; An N-terminal Met from the NdeI site is implied by the primers; also called AgAPN2a; -2a; not shown: C-terminal vector-derived His tag (pET-30a(+), NdeI/XhoI; purified on Ni2+ column)) STSMQQHRIAAVISHEIAHQWFGDLVTCEWWDVTWLNEGFARYYQYYGTALVETEWDLDHQFVVEQLQGVMQMDSLRSTHPMTHPVYTQAQTSGIFDNISYNKGAVMLRMMEHYLTTETFKTALRAYIKDRAFKTTRPEDLFNALNRYDPNARSYMEPWTVQPGYPLVTVTSHDTGFTITQKRFLVNEPDHNEQTAWPLPITFATKASEFSITRPAFYTGMTFEIPMQGASDVEYFILNNQQVGYYRVNYDAILW |  |  | 16.7 | 
